Measured values reported in patent publication US20240092934A1 (FAMEWAVE, published 2024).

T1: recombinant human CEACAM-1 (R&D Systems cat. no. 2244-CM-050) (human, UniProt P13688 35-428)
T1 construct: Coated on the ELISA plate at 0.5 ug/ml
T1 sequence (looked up): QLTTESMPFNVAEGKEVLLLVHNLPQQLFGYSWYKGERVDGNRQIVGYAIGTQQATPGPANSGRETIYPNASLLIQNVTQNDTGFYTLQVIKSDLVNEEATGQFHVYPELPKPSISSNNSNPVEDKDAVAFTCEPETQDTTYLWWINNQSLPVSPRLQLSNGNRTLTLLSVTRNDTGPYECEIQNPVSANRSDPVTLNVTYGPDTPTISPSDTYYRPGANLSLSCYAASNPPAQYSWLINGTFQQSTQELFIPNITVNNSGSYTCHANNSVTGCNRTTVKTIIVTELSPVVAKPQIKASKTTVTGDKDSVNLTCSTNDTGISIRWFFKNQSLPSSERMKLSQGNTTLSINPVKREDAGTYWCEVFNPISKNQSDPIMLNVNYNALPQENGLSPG


Target: T1, recombinant human CEACAM-1 (R&D Systems …)
Experiment: competition ELISA on coated recombinant human CEACAM-1; competitor biotinylated chimeric CM-10 IgG1
Text: The binding of the biotinylated antibody was detected with streptavidin-HRP (Sigma cat. no. S5512) and TMB substrate (Invitrogen cat. no. 00-2023). The reaction was stopped with 3M HC1, absorbance read at 450 nm on a Dynex Technologies MRX TC II plate reader and the binding curves plotted.

Binder	IC50 [µg/mL]	IC50 normalized to CM-10
humanized anti-CEACAM-1 variant VH3/VK2, IgG1 (antibody, V domains shown, Tested as human IgG1 / kappa antibody; only the variable regions are tied to this variant) VH: QVQLVQSGAEVKKPGASVKVSCKASGYAFTNNLIEWVRQAPGQGLEWIGVINPGSGDTNYNEKFKGRATLTADKSINTAYMELSRLRSDDTAVYYCARGDYYGGFAVDYWGQGTTVTVSS VL: DIQMTQSPSSLSASVGDRVTITCRTSQDIGNYLNWYQQKPGKAVKLLIYYTSRLHSGVPSRFSGSGSGTDYTLTISSLQPEDIATYFCQQGKSLPRTFGGGTKVEIK	0.85	1.36 ratio to IC50 of chimeric CM-10
humanized anti-CEACAM-1 variant VH2/VK3, IgG4 (S241P) (antibody, V domains shown, Tested as human IgG4 (S241P) / kappa antibody; only the variable regions are tied to this variant) VH: QVQLVQSGAEVKKPGASVKVSCKASGYAFTNNLIEWVKQAPGQGLEWIGVINPGSGDTNYNEKFKGRATLTADKSINTAYMELSRLRSDDTAVYFCARGDYYGGFAVDYWGQGTTVTVSS VL: DIQMTQSPSSLSASVGDRVTITCRTSQDIGNYLNWYQQKPGKAVKLLIYYTSRLHSGVPSRFSGSGSGTDYTFTISSLQPEDIATYFCQQGKSLPRTFGGGTKVEIK	0.71	1.16 ratio to IC50 of chimeric CM-10
humanized anti-CEACAM-1 variant VH3/VK1, IgG4 (S241P) (antibody, V domains shown, Tested as human IgG4 (S241P) / kappa antibody; only the variable regions are tied to this variant) VH: QVQLVQSGAEVKKPGASVKVSCKASGYAFTNNLIEWVRQAPGQGLEWIGVINPGSGDTNYNEKFKGRATLTADKSINTAYMELSRLRSDDTAVYYCARGDYYGGFAVDYWGQGTTVTVSS VL: DIQMTQSPSSLSASVGDRVTITCRTSQDIGNYLNWYQQKPGKAVKLLIYYTSRLHSGVPSRFSGSGSGTDYTLTISSLQQEDIATYFCQQGKSLPRTFGGGTKVEIK	0.71	1.16 ratio to IC50 of chimeric CM-10
humanized anti-CEACAM-1 variant VH1/VK1, IgG4 (S241P) (antibody, V domains shown, Tested as human IgG4 (S241P) / kappa antibody; only the variable regions are tied to this variant) VH: QVQLVQSGAELKKPGASVKVSCKASGYAFTNNLIEWVKQAPGQGLEWIGVINPGSGDTNYNEKFKGRATLTADKSINTAYMELSSLTSDDSAVYFCARGDYYGGFAVDYWGQGTSVTVSS VL: DIQMTQSPSSLSASVGDRVTITCRTSQDIGNYLNWYQQKPGKAVKLLIYYTSRLHSGVPSRFSGSGSGTDYTLTISSLQQEDIATYFCQQGKSLPRTFGGGTKVEIK	0.78	1.52 ratio to IC50 of chimeric CM-10
humanized anti-CEACAM-1 variant VH2/VK2, IgG4 (S241P) (antibody, V domains shown, Tested as human IgG4 (S241P) / kappa antibody; only the variable regions are tied to this variant) VH: QVQLVQSGAEVKKPGASVKVSCKASGYAFTNNLIEWVKQAPGQGLEWIGVINPGSGDTNYNEKFKGRATLTADKSINTAYMELSRLRSDDTAVYFCARGDYYGGFAVDYWGQGTTVTVSS VL: DIQMTQSPSSLSASVGDRVTITCRTSQDIGNYLNWYQQKPGKAVKLLIYYTSRLHSGVPSRFSGSGSGTDYTLTISSLQPEDIATYFCQQGKSLPRTFGGGTKVEIK	0.76	1.26 ratio to IC50 of chimeric CM-10
humanized anti-CEACAM-1 variant VH3/VK3, IgG4 (S241P) (antibody, V domains shown, Tested as human IgG4 (S241P) / kappa antibody; only the variable regions are tied to this variant) VH: QVQLVQSGAEVKKPGASVKVSCKASGYAFTNNLIEWVRQAPGQGLEWIGVINPGSGDTNYNEKFKGRATLTADKSINTAYMELSRLRSDDTAVYYCARGDYYGGFAVDYWGQGTTVTVSS VL: DIQMTQSPSSLSASVGDRVTITCRTSQDIGNYLNWYQQKPGKAVKLLIYYTSRLHSGVPSRFSGSGSGTDYTFTISSLQPEDIATYFCQQGKSLPRTFGGGTKVEIK	0.73	1.23 ratio to IC50 of chimeric CM-10
humanized anti-CEACAM-1 variant VH1/VK1, IgG1 (antibody, V domains shown, Tested as human IgG1 / kappa antibody; only the variable regions are tied to this variant) VH: QVQLVQSGAELKKPGASVKVSCKASGYAFTNNLIEWVKQAPGQGLEWIGVINPGSGDTNYNEKFKGRATLTADKSINTAYMELSSLTSDDSAVYFCARGDYYGGFAVDYWGQGTSVTVSS VL: DIQMTQSPSSLSASVGDRVTITCRTSQDIGNYLNWYQQKPGKAVKLLIYYTSRLHSGVPSRFSGSGSGTDYTLTISSLQQEDIATYFCQQGKSLPRTFGGGTKVEIK	0.78	1.46 ratio to IC50 of chimeric CM-10
humanized anti-CEACAM-1 variant VH3/VK1, IgG1 (antibody, V domains shown, Tested as human IgG1 / kappa antibody; only the variable regions are tied to this variant) VH: QVQLVQSGAEVKKPGASVKVSCKASGYAFTNNLIEWVRQAPGQGLEWIGVINPGSGDTNYNEKFKGRATLTADKSINTAYMELSRLRSDDTAVYYCARGDYYGGFAVDYWGQGTTVTVSS VL: DIQMTQSPSSLSASVGDRVTITCRTSQDIGNYLNWYQQKPGKAVKLLIYYTSRLHSGVPSRFSGSGSGTDYTLTISSLQQEDIATYFCQQGKSLPRTFGGGTKVEIK	0.69	1.1 ratio to IC50 of chimeric CM-10
humanized anti-CEACAM-1 variant VH1/VK2, IgG4 (S241P) (antibody, V domains shown, Tested as human IgG4 (S241P) / kappa antibody; only the variable regions are tied to this variant) VH: QVQLVQSGAELKKPGASVKVSCKASGYAFTNNLIEWVKQAPGQGLEWIGVINPGSGDTNYNEKFKGRATLTADKSINTAYMELSSLTSDDSAVYFCARGDYYGGFAVDYWGQGTSVTVSS VL: DIQMTQSPSSLSASVGDRVTITCRTSQDIGNYLNWYQQKPGKAVKLLIYYTSRLHSGVPSRFSGSGSGTDYTLTISSLQPEDIATYFCQQGKSLPRTFGGGTKVEIK	0.7	1.36 ratio to IC50 of chimeric CM-10
humanized anti-CEACAM-1 variant VH1/VK3, IgG1 (antibody, V domains shown, Tested as human IgG1 / kappa antibody; only the variable regions are tied to this variant) VH: QVQLVQSGAELKKPGASVKVSCKASGYAFTNNLIEWVKQAPGQGLEWIGVINPGSGDTNYNEKFKGRATLTADKSINTAYMELSSLTSDDSAVYFCARGDYYGGFAVDYWGQGTSVTVSS VL: DIQMTQSPSSLSASVGDRVTITCRTSQDIGNYLNWYQQKPGKAVKLLIYYTSRLHSGVPSRFSGSGSGTDYTFTISSLQPEDIATYFCQQGKSLPRTFGGGTKVEIK	0.77	1.44 ratio to IC50 of chimeric CM-10
humanized anti-CEACAM-1 variant VH3/VK3, IgG1 (antibody, V domains shown, Tested as human IgG1 / kappa antibody; only the variable regions are tied to this variant) VH: QVQLVQSGAEVKKPGASVKVSCKASGYAFTNNLIEWVRQAPGQGLEWIGVINPGSGDTNYNEKFKGRATLTADKSINTAYMELSRLRSDDTAVYYCARGDYYGGFAVDYWGQGTTVTVSS VL: DIQMTQSPSSLSASVGDRVTITCRTSQDIGNYLNWYQQKPGKAVKLLIYYTSRLHSGVPSRFSGSGSGTDYTFTISSLQPEDIATYFCQQGKSLPRTFGGGTKVEIK	0.86	1.37 ratio to IC50 of chimeric CM-10
humanized anti-CEACAM-1 variant VH4/VK1, IgG1 (antibody, V domains shown, Tested as human IgG1 / kappa antibody; only the variable regions are tied to this variant) VH: QVQLVQSGAEVKKPGASVKVSCKASGYAFTNNLIEWVRQAPGQGLEWIGVINPGSGDTNYNEKFKGRATLTADKSISTAYMELSRLRSDDTAVYYCARGDYYGGFAVDYWGQGTTVTVSS VL: DIQMTQSPSSLSASVGDRVTITCRTSQDIGNYLNWYQQKPGKAVKLLIYYTSRLHSGVPSRFSGSGSGTDYTLTISSLQQEDIATYFCQQGKSLPRTFGGGTKVEIK	0.73	1.15 ratio to IC50 of chimeric CM-10
humanized anti-CEACAM-1 variant VH1/VK3, IgG4 (S241P) (antibody, V domains shown, Tested as human IgG4 (S241P) / kappa antibody; only the variable regions are tied to this variant) VH: QVQLVQSGAELKKPGASVKVSCKASGYAFTNNLIEWVKQAPGQGLEWIGVINPGSGDTNYNEKFKGRATLTADKSINTAYMELSSLTSDDSAVYFCARGDYYGGFAVDYWGQGTSVTVSS VL: DIQMTQSPSSLSASVGDRVTITCRTSQDIGNYLNWYQQKPGKAVKLLIYYTSRLHSGVPSRFSGSGSGTDYTFTISSLQPEDIATYFCQQGKSLPRTFGGGTKVEIK	0.54	1.05 ratio to IC50 of chimeric CM-10

Continued, values first:

IC50 [µg/mL]	IC50 normalized to CM-10	Binder
0.76	1.21 ratio to IC50 of chimeric CM-10	humanized anti-CEACAM-1 variant VH2/VK3, IgG1 (antibody, V domains shown, Tested as human IgG1 / kappa antibody; only the variable regions are tied to this variant) VH: QVQLVQSGAEVKKPGASVKVSCKASGYAFTNNLIEWVKQAPGQGLEWIGVINPGSGDTNYNEKFKGRATLTADKSINTAYMELSRLRSDDTAVYFCARGDYYGGFAVDYWGQGTTVTVSS VL: DIQMTQSPSSLSASVGDRVTITCRTSQDIGNYLNWYQQKPGKAVKLLIYYTSRLHSGVPSRFSGSGSGTDYTFTISSLQPEDIATYFCQQGKSLPRTFGGGTKVEIK
0.68	1.29 ratio to IC50 of chimeric CM-10	humanized anti-CEACAM-1 variant VH2/VK1, IgG1 (antibody, V domains shown, Tested as human IgG1 / kappa antibody; only the variable regions are tied to this variant) VH: QVQLVQSGAEVKKPGASVKVSCKASGYAFTNNLIEWVKQAPGQGLEWIGVINPGSGDTNYNEKFKGRATLTADKSINTAYMELSRLRSDDTAVYFCARGDYYGGFAVDYWGQGTTVTVSS VL: DIQMTQSPSSLSASVGDRVTITCRTSQDIGNYLNWYQQKPGKAVKLLIYYTSRLHSGVPSRFSGSGSGTDYTLTISSLQQEDIATYFCQQGKSLPRTFGGGTKVEIK
0.7	1.32 ratio to IC50 of chimeric CM-10	humanized anti-CEACAM-1 variant VH1/VK2, IgG1 (antibody, V domains shown, Tested as human IgG1 / kappa antibody; only the variable regions are tied to this variant) VH: QVQLVQSGAELKKPGASVKVSCKASGYAFTNNLIEWVKQAPGQGLEWIGVINPGSGDTNYNEKFKGRATLTADKSINTAYMELSSLTSDDSAVYFCARGDYYGGFAVDYWGQGTSVTVSS VL: DIQMTQSPSSLSASVGDRVTITCRTSQDIGNYLNWYQQKPGKAVKLLIYYTSRLHSGVPSRFSGSGSGTDYTLTISSLQPEDIATYFCQQGKSLPRTFGGGTKVEIK
0.69	1.15 ratio to IC50 of chimeric CM-10	humanized anti-CEACAM-1 variant VH4/VK1, IgG4 (S241P) (antibody, V domains shown, Tested as human IgG4 (S241P) / kappa antibody; only the variable regions are tied to this variant) VH: QVQLVQSGAEVKKPGASVKVSCKASGYAFTNNLIEWVRQAPGQGLEWIGVINPGSGDTNYNEKFKGRATLTADKSISTAYMELSRLRSDDTAVYYCARGDYYGGFAVDYWGQGTTVTVSS VL: DIQMTQSPSSLSASVGDRVTITCRTSQDIGNYLNWYQQKPGKAVKLLIYYTSRLHSGVPSRFSGSGSGTDYTLTISSLQQEDIATYFCQQGKSLPRTFGGGTKVEIK
0.78	1.24 ratio to IC50 of chimeric CM-10	humanized anti-CEACAM-1 variant VH2/VK2, IgG1 (antibody, V domains shown, Tested as human IgG1 / kappa antibody; only the variable regions are tied to this variant) VH: QVQLVQSGAEVKKPGASVKVSCKASGYAFTNNLIEWVKQAPGQGLEWIGVINPGSGDTNYNEKFKGRATLTADKSINTAYMELSRLRSDDTAVYFCARGDYYGGFAVDYWGQGTTVTVSS VL: DIQMTQSPSSLSASVGDRVTITCRTSQDIGNYLNWYQQKPGKAVKLLIYYTSRLHSGVPSRFSGSGSGTDYTLTISSLQPEDIATYFCQQGKSLPRTFGGGTKVEIK
0.43	0.84 ratio to IC50 of chimeric CM-10	humanized anti-CEACAM-1 variant VH2/VK1, IgG4 (S241P) (antibody, V domains shown, Tested as human IgG4 (S241P) / kappa antibody; only the variable regions are tied to this variant) VH: QVQLVQSGAEVKKPGASVKVSCKASGYAFTNNLIEWVKQAPGQGLEWIGVINPGSGDTNYNEKFKGRATLTADKSINTAYMELSRLRSDDTAVYFCARGDYYGGFAVDYWGQGTTVTVSS VL: DIQMTQSPSSLSASVGDRVTITCRTSQDIGNYLNWYQQKPGKAVKLLIYYTSRLHSGVPSRFSGSGSGTDYTLTISSLQQEDIATYFCQQGKSLPRTFGGGTKVEIK
